Results published in patent publication US20180118786A1 (published 2018).
Starred links: 1 amine or outer side, 2 acyl side, 3 side chain; linkers in the order of their positions; H or OH if unused. Positions of bridges follow the written chain, without caps; N, C: chain ends. TATA = O=C(CC[*:1])N1CN(C(=O)CC[*:2])CN(C(=O)CC[*:3])C1

Tests used:
Experiment in all cases: enzyme inhibition
thrombin = thrombin (human, UniProt P00734 328-622)
[1] = molecular target: human tissue-plasminogen activator (human, UniProt P00750 36-562)
human tissue-plasminogen activator, sequence (P00750 36-562): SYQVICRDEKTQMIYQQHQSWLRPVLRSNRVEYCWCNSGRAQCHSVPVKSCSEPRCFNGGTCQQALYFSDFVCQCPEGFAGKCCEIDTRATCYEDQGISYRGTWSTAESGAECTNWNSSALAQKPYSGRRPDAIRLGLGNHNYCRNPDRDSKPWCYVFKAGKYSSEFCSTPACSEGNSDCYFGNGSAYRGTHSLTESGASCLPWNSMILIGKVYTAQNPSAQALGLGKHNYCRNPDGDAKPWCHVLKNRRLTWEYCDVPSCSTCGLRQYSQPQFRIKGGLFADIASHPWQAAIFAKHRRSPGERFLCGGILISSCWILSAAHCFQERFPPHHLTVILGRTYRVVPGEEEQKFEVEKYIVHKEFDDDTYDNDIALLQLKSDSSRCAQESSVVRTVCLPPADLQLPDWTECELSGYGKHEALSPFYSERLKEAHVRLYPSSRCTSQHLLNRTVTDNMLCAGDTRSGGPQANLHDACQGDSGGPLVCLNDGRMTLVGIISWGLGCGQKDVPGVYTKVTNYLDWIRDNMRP

uPA = uPA (human, UniProt P00749 21-431)
plasma kallikrein = plasma kallikrein (human, UniProt P03952 20-638)
plasma kallikrein, sequence (P03952 20-638): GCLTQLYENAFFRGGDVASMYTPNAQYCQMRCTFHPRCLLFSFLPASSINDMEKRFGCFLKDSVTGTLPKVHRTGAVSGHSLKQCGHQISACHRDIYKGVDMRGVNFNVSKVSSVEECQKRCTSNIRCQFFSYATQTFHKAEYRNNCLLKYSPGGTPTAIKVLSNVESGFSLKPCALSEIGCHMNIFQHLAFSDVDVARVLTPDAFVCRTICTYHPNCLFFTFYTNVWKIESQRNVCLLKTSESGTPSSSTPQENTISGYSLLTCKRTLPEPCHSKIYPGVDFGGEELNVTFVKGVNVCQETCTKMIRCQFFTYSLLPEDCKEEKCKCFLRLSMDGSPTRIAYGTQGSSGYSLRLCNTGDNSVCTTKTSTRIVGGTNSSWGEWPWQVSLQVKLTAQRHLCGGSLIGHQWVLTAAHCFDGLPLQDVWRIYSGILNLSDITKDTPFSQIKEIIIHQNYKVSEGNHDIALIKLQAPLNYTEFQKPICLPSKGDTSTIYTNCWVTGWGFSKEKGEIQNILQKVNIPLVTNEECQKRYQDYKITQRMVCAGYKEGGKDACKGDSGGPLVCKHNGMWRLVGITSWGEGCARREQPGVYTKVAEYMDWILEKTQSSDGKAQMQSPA

factor VIIa = molecular target: T1, factor VIIa (human, UniProt P08709 61-466)
T1 chain: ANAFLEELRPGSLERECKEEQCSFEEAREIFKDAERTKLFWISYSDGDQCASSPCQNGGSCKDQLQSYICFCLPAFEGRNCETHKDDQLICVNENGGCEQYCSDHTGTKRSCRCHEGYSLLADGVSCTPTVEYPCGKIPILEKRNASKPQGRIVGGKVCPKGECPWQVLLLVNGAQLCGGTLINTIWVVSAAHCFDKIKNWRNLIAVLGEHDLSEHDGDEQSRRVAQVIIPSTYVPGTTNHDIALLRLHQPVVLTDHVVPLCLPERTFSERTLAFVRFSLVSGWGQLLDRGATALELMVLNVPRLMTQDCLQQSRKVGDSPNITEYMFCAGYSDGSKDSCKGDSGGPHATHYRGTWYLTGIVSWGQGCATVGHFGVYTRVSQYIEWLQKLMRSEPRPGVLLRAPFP

plasmin = molecular target: T2, plasmin (human, UniProt P00747 97-810)
T2 chain: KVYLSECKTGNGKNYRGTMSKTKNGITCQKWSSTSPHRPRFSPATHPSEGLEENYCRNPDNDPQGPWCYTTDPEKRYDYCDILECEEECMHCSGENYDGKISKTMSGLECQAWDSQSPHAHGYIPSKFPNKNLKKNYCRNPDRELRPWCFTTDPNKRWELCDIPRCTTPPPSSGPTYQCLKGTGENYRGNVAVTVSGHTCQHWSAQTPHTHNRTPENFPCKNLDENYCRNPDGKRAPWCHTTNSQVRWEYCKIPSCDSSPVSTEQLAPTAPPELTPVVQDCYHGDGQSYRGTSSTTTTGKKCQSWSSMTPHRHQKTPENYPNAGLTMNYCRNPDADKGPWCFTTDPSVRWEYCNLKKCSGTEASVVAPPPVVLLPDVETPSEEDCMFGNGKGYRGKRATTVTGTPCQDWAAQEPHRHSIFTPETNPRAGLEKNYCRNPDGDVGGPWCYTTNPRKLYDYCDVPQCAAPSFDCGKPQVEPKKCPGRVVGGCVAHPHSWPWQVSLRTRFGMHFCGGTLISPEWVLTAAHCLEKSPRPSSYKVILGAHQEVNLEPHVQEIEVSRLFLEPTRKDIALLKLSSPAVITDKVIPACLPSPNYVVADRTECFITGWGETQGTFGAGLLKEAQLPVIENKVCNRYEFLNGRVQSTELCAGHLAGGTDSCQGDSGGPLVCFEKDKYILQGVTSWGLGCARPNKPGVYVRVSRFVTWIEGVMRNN

factor XIa = factor XIa (human, UniProt P03951 19-625)
factor Xa = molecular target: T3, factor Xa (human, UniProt P00742 41-179; P00742 235-488)
T3 chain 1: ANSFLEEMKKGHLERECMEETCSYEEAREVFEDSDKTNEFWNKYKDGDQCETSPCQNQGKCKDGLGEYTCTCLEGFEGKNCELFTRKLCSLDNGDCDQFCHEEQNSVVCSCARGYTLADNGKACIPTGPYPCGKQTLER
T3 chain 2: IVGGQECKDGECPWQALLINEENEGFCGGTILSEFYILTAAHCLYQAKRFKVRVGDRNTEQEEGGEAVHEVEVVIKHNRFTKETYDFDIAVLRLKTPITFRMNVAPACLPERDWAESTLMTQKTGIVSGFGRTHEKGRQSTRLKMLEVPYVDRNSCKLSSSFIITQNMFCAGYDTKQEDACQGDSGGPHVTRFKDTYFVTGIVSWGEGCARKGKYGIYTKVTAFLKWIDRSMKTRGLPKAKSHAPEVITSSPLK

Ki (thrombin): > 50 µM | Ki [1]: > 50 µM | Ki (uPA): > 50 µM | Ki (plasma kallikrein): > 50 µM | Ki (factor VIIa): > 50 µM | Ki (plasmin): > 50 µM | Ki (factor XIa): > 50 µM | Ki (factor Xa): > 50 µM
Binder: H-RCFRLPCRQLRCR-NH2 (linker 2-7-12 via TATA) [FXII618]
